These results are taken from the DeepSol protein solubility set.

This series is described as follows: soluble on expression in E. coli; label from the status in PepcDB or PDB records.
With “MGSDKIHHHHHHMPFAKEKGQPAIYYETIGKGTPIIFIPPPGVGHLTFRYQVPLMNQCKLITFDVRGDCQSERSTEPMTMTQLAYDVKRVLDANCVRKAIVCGYSNGAAIAQEFALTYPERTAGVILIGGYFAVKNFLLEKEYKLGIWAARNELMPLLASGLAKNHFTDKQAANELYAEIMKTDPQMLADQYTTGLHYSSEDRLHQLRVPLLLIYGANDHYLQPYQTRFRELVHDVEIVYIQGVKHQVPSKAPHECNAVLREWMRRKQFIPS”, the “soluble on expression in E. coli” value was “not soluble”. The same measure for “MGSDKIHHHHHHMPFQQGLLATPVPAHARHLFFTLQSPEALPAALDALLPQVDGKQLLLGVGAPLAKALGREIPGLRPFPLLDAAVENPSTQHALWLWLRGDERGDLLLRTQALEQALAPALSLADSVDGFLHRGGHDLTGYEDGTENPTDEEAVQAAIAADGSSFAAFQLWKHDLQYFKSLPQADQDNIIGRRLSDNEELDDAPASAHVKRTAQESFEPEAFMVRRSVSWADQRGAGLAFVALGKSFEAFEVQLRRMSGLEDGIIDGLYRFSRPLTGGYYWCPPMSETGVDLSPLLRA”: “not soluble”; for “MGSDKIHHHHHHMPGKAKGRSLTAAQFNLRSDRLIAGKALRNVLPRTEQASWQPAQDRRDPIAILEDSNQGRVPELIPIRYGRMLRSPFTFLRGSAAIMAYDLATTPNTGIHVQACGDCHLLNFGLFATPERNLVFDINDFDETHPAPWEWDLKRLAVSFVIAARNNQVVDQEAESIAVSCTRSYREHLRNYSRMSPLEVWYARLEMKEIIEMAPTEKIRKRREEFAERAQKRIAEHLFPKIVTLKEGKHQFVDQPPILFHSNDPTLRNRVINGLQAYRKSLPDERRVLFDRYRLEDYATKVVGIGSVGTHCSIALFFSEENHPLILQVKEARQSVLEPYTQTNCYENQGQRVVVGQRLMQSSSDIFLGWARSDLGRDFYVRQLRDMKFSLPIDGMQAERFHRYAEFCGWALARAHAKAGDAATISGYLGKADAFDEAIAKFAVAYADQTEQDYTALVQAVASGRIEAIVEEDL”: “not soluble”; for “MGSDKIHHHHHHMPHLFYGTAQNGEVIFDEREAHHMRVVRLKEGDVIEATDGNGFSYTCILKSLKKKTAAAKIVKVEEKEKEPTEKLSVVVPIGRWERTRFLIEKCVELGVDEIFFHKFERSQHEISLDKAKIVVREAAKQCKRYLFPKVSFLEKLEFSGNVITLDLDASQNLLDANLEGSITVVVGPEGGFSEKERELLRSSTTIVSLGKKILRFETAAILTVGYIALKKQKI”: “soluble”.

“MGSDKIHHHHHHMPKNRDAARASLENLYRIFTVPEAPDSTLGAIDQAIAGDVAGFLQTHIVAIERPLEEIEADFSSFSIPEEPTYVSEYTEFVKENLVAHSVHTASPAFVGHMTSALPYFMLPLARLMTALNQNVVKVETSKAFTPMERQVLAMLHHLVYGRNDDFYPQWIHNSQHALGAFCSGGTLANVTALWVARNRLFAPDGEFRGIAQEGLARALKHRGADGIAVLVSERGHYSLGKAADLLGIGRDDLIKIKTDANNRIDLKALREECRRLQDRNTLPLALVGIAGTTETGNVDPLEAMADLAQELGCHFHVDAAWGGPTLFSDRHRHLLRGIERADSVTIDGHKQLYVPMGAGMVVFKDPTALSAIEHHANYILRHGSKDLGSHTLEGSRPGKAMLVHAGFSIIGRKGYELLIDMGIERARTFADMIQRHPDFELISEPELNILTYRYCPPAIQQALTDATAQQRAAINGLLDQVCQLLQKYQREAGKTFVSRTRLHVARHDMELTVLRVVLANPLTTDEILEAVLAEQCEIVRLPEIQALLRQAEELCPGLAKAV”: the “soluble on expression in E. coli” value is listed as “not soluble”. The same measure for “MGSDKIHHHHHHMPLKRLNRFRLWLWETPPVYEIRGRCFQIKERLCGYPELHRAFRERTGYELSLHHPCTFHHKITVLKIRRSPRIFVRAVDKIFAKELALEWAHQHGFRLYVARTLAVTKDVSEIRWHELPQRFLIKATHRSGANLFVDQSQAFDLDALRVQSRAWLQYPYGVYKHEWAYWPVPRRLLIEELIEPVDGEELVDYKFHMSRGRCLMIQVNQGLRSGKRTIAILHPSWQLQPVKWVYPQPEVIPQRPDTFYEMLEMASAFSREFPYLRVDLYSVKQVMSGVMVSRVMFGEFTFFPGSGSESVDPFAFDLAIGKEIKL”: “not soluble”; for “MGSDKIHHHHHHMPRHDDPRYFPISPLLIVPQALGSFSVFIRKDERLILYAKAGETFTERHSRRLHENGTSEVYVRVDQRQNFGLYLERHLAHILEDDRLPVEHRASAFHCATTELLRDTFGTRLPAPVDGILFERLQSLVTMSLRFLCEQGTLKALGQLLDCDFSAYSHSVNVYALTVPLLARLGYAQTDLVRTGLGVLLHDIGLARLPRAITRHRHSLTKHEEHIYRTHPTLGVGLVAQVPLSQEALHCIMLHHERLDGSGFPAGVKDENIPTAVRALAIADTYDLLTTAPGEARLTPFMALQLMRSEHHSTLDLYLLREFITMLSDAEMAGVWPDTLR”: “not soluble”.

Regarding “MGSDKIHHHHHHMPRNMPCPDNTMPSLSFWWRYPYLRVLVVVLLMTSQPCAISAQASTSPSVAQSSLRHLSDQLPIVGVWLTNSPSPLYYSRNLMHKAVKDLYSAGFTALYLNVWSRGSTFHRSNYAPVEGPLQKAGLALDPICTLSREGHARGMKVMPWFEYGLMEPDDAEVVKLHPDWVLARADGNPVVKMHGNHQRVWLNPAHPEVRARFIGVVIEVMKRCKMDGVQLDDHFAWPVKLGYDPYTVALYQQETGSSPPRDYSDRFWMQWRRRKLTGLLRELRQALEKEKLPVNISLAPGPFRFAYNNWLQDWELWTVGKLIDELVVQNYAYSLKGFAKDLDQPALRKAPQLGVPVHIGVLAGFGKRTTPMPILAEKVRMAAERGHGVIYFYWEGLWGQHAGIEGGIQRLRQFKQLHEKKN”, the “soluble on expression in E. coli” value is “not soluble”. The same measure for “MGSDKIHHHHHHMPRPRRTQISLEDTPYYHCCSRVVRRAFLCGDDTYSGKNYDHRRTWVESLLFELEAIFAIDVAAFAVMSNHLHLVLRVDIDSANGWTDREVLEQWHKLFKGDELTQKFAKGELVEAYEVSRLKHSIAIYRSRLCDISWFMRCLNEPIARQANQEDNCTGRFWEGRFKSQALLDEAAVLACMTYVDLNPIRAQLADTPEQSDHTSIQLRIRAALKGEQPSNLLPFIANECDNQPNGIAFSLMDYLQLVDDTGRIIRNDKRGYISESSAKILTRLNIPHDNWLKLTTDFGKLFHGPVGTLQELTDYCEHLEKRRRHFAASCQHFKSN”: “not soluble”; for “MGSDKIHHHHHHMPSIQELENFIIYGKVRNFTLAANQANITQSAFSFQMKKLEETLGVKLILRSNRGSSLTPEGEIFYKKISEILPELVGVIYEFQQINGEKAIELKVGVLTSLGDILMNQHVNYFQKNKNILITVYSMEKNELIRALNNGKIDIASTFLFDDETLENFEKSLFRKDKIVYYAPKIKEISGTIKRDNMLKVPLVKYPPDNFMNKMIDQYFNIERKMPTVAAKLPSPYAFIEYCKQDTAGAFITERLLNTLGFKYKQEYFNIDPPYEIKAFLLYKKENPKYSAIKIFTDYVVKLNQRDS”: “not soluble”; for “MGSDKIHHHHHHMPSPIDLHSHSTVSDGLLAPEALVAHAAEQGVKVLSLTDHDDTSGLAPAASAAAGHGMEFINGVEISVTWRRKTIHVVGLRVDPDHGPLREGLEKIRAGRHLRAENIAASLEKFGIKGSLEGAYAHARQGIIGRAHFARYLIDQGYASNMKAIFKRYLVKGKPGYVEHHWATLEEVVAWINGSGGVAVLAHPGRYDIGRSNMLLLLEEFRNLGGTAIEVVTGSHNADQFQEYAKLAHMFGLKSSMGSDYHGPGHGNIEMGRLPDLPRGCIPVWQDWPEIRSLNN”: “not soluble”. As to “MGSDKIHHHHHHMPTGNELPINEGASALQMANTIFGPGVTVNTASYTGWSQSSGIYTNGDSVAPGVTPSDTGVILSTGRASHITQSNGDPNRSDSTSTNTPGPSNDPDFNAIAGFVGSNDASFLEVNFTPTTDVLTMQFTFASEEYPEYTGSVFNDIFGVWVNGALVASPVVNVTQINSVNQSENATLFNNNTDDDYNTEMDGFTVTLTLVMPVNINQPNDIKIGVADVADSAYDSNVLIAAGSIQGEFVAESDSITHLEGLTSVLDVLANDPTSGGIAFITHINGVEVNPGDSVTLSDGTIVTLLPSGELQIDPPATQTGLTSSETIHFTYTVDNGSGITDTAFVTVTAIPCFARGTMILTAHGEKPVETLVPGDRIATRDNGLQEIRWIGTRKVAAEGRFAPIAIEAGTFGMHRRLVVSPQHRVMLTHWMAEVMFGEDEVLVAAKDLVNDCSVRVLGPGDFDDGEVEYFHLLFDQHQIIFSDGLATESFLPGPTVMNDLDAAVQEEVLALFPDIDPDTKDGYGPAARLPLRAFEARAMLA”, the “soluble on expression in E. coli” value is reported as “not soluble”. “MGSDKIHHHHHHMQDVTGRALVMMESATQGQQGIAMDLVQEAFIALHKSYADRSTEEWYPLFYTILNNKLQDWRRKEARRANPFSFFKKVSLDNDDEEIIDIVDEKAINPADFLDQAVTIEEIQEAIAKLPVRQQQAFMLRAWEGFDTHTTAQIMNCTEGSVKTHYHRAIQGLREYLAHLNPMGGSNES”: the “soluble on expression in E. coli” value is “not soluble”.

As for “MGSDKIHHHHHHMQEIELKFLVPEPRLKGLMRQAKIKSSQVTQLAAHYYDTPDQQLAQAGIGLRIRQEGNAWVQTIKASGDGIAARLEHNLTLDNEQVQAMLDNNELLPDLTIYKDTPIAPALADFKLKKLAKQLTRLYVTDVERTTRLLIKDTGDEVVNSIEMAYDYGEIIHGTDDTQRDVIQEIEFELISGELDFLFSTAKTWCQRYKLCLSTVTKAERGGRLIKGQSHTPATAADLSELNIDKKIGMPAFLRAVVHNCLLQILPNSSAIVAGSKDNEHLLQLSIGIERLHTVLQAFDSFSDEINPDWSAILQQTATLLTEYRKLAYLSTHIEPRLQKDGAPIVDWTADIDALKITPIAAISTNHFQIMLLELIAFTMSDPSLEPQTDKLAINKLEKILVKYHEKLLKAEQYLEDRYDESDSELENESIIKALHNLHDHLKDLRYISELVAPLYGKKKTKRWLKRTVKAQKTLGQQLNMSDYQQYYQSKASSDFAALYAAGWLNAVLIPMEKATEKRLDKFYACSVFW”, the “soluble on expression in E. coli” value is “not soluble”.

For “MGSDKIHHHHHHMQEMILLQQKVDETIRALGGYFRPLSGLARLIEEVGEVGEALETGDELSFQAELVDVLMISTCLANQYVTDLAQQHQQLGTMEDEGQGSFYRLVHEAGQVARVMNGYEGDKPPKQTEDIIPIGMSLARLQRELFRLVRPHGINLLQEIDRTNEKNLNRDRKRFALTRDPVTEATIDHFRSATGNTERLWGAPAYESDLALEAHIQAALPSLRRFLRCARIEGIAGFVIEAPMERTDSLRSVKDQADEIGRIVKEQTPLSFKEAPYRIDVYAPQLGPVSPYHAEDDHRMFLVLHVDE”, the “soluble on expression in E. coli” value was “not soluble”. The value for “MGSDKIHHHHHHMQILKTSDVPTGIVLLDRRLDGGLPAGSFVCVYANPLAMPEAFLYQFATVLKTYYFTTSRPAKFVKQDMEKLRLDTSFVTFVDVYEQYYLNEYGQFIVEDRYRDKEIFDYVDDRLSRIAEEESGEYNVIIDSLSFFLNLNTDWGLKDWLINKLYTLAKEKGVVVYCHLIKNLHPVDVVNKVLDISDVVFDIEVERVGERLVSKFAVPKLRGKRPVTEYFRFYVEEGIQVDTSRDIA” was “not soluble”; that for “MGSDKIHHHHHHMQKPCIATPFSSYQETVPSLLQAVGAPGLLSRQSCILIKPNLVNASPPPVTLPVAACEALVAACRRWSKARIVIAEGSGDRDLSTGEIFQRLGYERLARRYDVDLVDLNNAELVELQNPLCEVFPTFMMPRMVMDSFVISAAVLKAHSLAEVTLSMKNMIGVAPPAYYQQGGHWKKSAFHAQMHRSIFELNRYRKPDLAFIDASVGLAEYHLGGPTCEPPVDKLLAGFDPVAVDAAGSELLGIPWQQVEHIRLADGLLGRAGK” was “not soluble”.
